Data: the supplement of paper PMC10567573

B1: TEKT4 (parent)
chain: LREKLLEAEQSLRNLEDIHMSLEK
B2: BTBD1 (parent)
chain: YGSIHGPTDYQVNIQIIEYEKKQT

Variants of: B1
Assay: protein stability index of a GFP-peptide fusion (GPS, HEK-293T) (PSI 1-6); higher = more stable
Settings: c terminus: a fixed tail appended
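Also: lentivirally expressed fusions sorted by FACS into six bins by GFP to DsRed ratio, PSI derived from sequencing read proportions per bin multiplied by bin number.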

**Q.** For DREKLLEAEQSLRNLEDIHMSLEK, which protein stability index is on record?
**A.** 5.15

**Q.** Which protein stability index does the source give for AREKLLEAEQSLRNLEDIHMSLEK here?
**A.** 3.67

**Q.** Which protein stability index does the source give for GREKLLEAEQSLRNLEDIHMSLEK here?
**A.** 4.38

**Q.** Which protein stability index does the source give for TREKLLEAEQSLRNLEDIHMSLEK here?
**A.** 4.24

**Q.** Which protein stability index does the source give for YREKLLEAEQSLRNLEDIHMSLEK here?
**A.** 2.61

**Q.** Which protein stability index does the source give for MREKLLEAEQSLRNLEDIHMSLEK here?
**A.** 3.12

**Q.** Which protein stability index does the source give for WREKLLEAEQSLRNLEDIHMSLEK here?
**A.** 1.92

**Q.** With IREKLLEAEQSLRNLEDIHMSLEK as the variant, how does the protein stability index read?
**A.** 1.82

**Q.** With PREKLLEAEQSLRNLEDIHMSLEK as the variant, how does the protein stability index read?
**A.** 4.12

**Q.** Which protein stability index does the source give for SREKLLEAEQSLRNLEDIHMSLEK here?
**A.** 4.82

**Q.** For RREKLLEAEQSLRNLEDIHMSLEK, which protein stability index is on record?
**A.** 3.52

**Q.** For FREKLLEAEQSLRNLEDIHMSLEK, which protein stability index is on record?
**A.** 1.74

**Q.** For KREKLLEAEQSLRNLEDIHMSLEK, which protein stability index is on record?
**A.** 4.27

**Q.** For VREKLLEAEQSLRNLEDIHMSLEK, which protein stability index is on record?
**A.** 1.98

**Q.** Which protein stability index does the source give for HREKLLEAEQSLRNLEDIHMSLEK here?
**A.** 3.92

**Q.** Which protein stability index does the source give for EREKLLEAEQSLRNLEDIHMSLEK here?
**A.** 5.12

**Q.** With NREKLLEAEQSLRNLEDIHMSLEK as the variant, how does the protein stability index read?
**A.** 4.65

**Q.** For QREKLLEAEQSLRNLEDIHMSLEK, which protein stability index is on record?
**A.** 4.67

**Q.** Which protein stability index does the source give for CREKLLEAEQSLRNLEDIHMSLEK here?
**A.** 3.07

**Q.** For LRDKLLEAEQSLRNLEDIHMSLEK, which protein stability index is on record?
**A.** 2.02

**Q.** With LRCKLLEAEQSLRNLEDIHMSLEK as the variant, how does the protein stability index read?
**A.** 1.96

**Q.** With LRAKLLEAEQSLRNLEDIHMSLEK as the variant, how does the protein stability index read?
**A.** 2.29

**Q.** With LRGKLLEAEQSLRNLEDIHMSLEK as the variant, how does the protein stability index read?
**A.** 1.96

**Q.** With LRKKLLEAEQSLRNLEDIHMSLEK as the variant, how does the protein stability index read?
**A.** 2.1

**Q.** With LRFKLLEAEQSLRNLEDIHMSLEK as the variant, how does the protein stability index read?
**A.** 2.46

**Q.** With LRHKLLEAEQSLRNLEDIHMSLEK as the variant, how does the protein stability index read?
**A.** 2.71

**Q.** For LMEKLLEAEQSLRNLEDIHMSLEK, which protein stability index is on record?
**A.** 1.89

**Q.** With LGEKLLEAEQSLRNLEDIHMSLEK as the variant, how does the protein stability index read?
**A.** 2.34

**Q.** For LQEKLLEAEQSLRNLEDIHMSLEK, which protein stability index is on record?
**A.** 1.9

**Q.** With LEEKLLEAEQSLRNLEDIHMSLEK as the variant, how does the protein stability index read?
**A.** 2.43

**Q.** Which protein stability index does the source give for LCEKLLEAEQSLRNLEDIHMSLEK here?
**A.** 1.48

**Q.** For LYEKLLEAEQSLRNLEDIHMSLEK, which protein stability index is on record?
**A.** 2.05

**Q.** Which protein stability index does the source give for LPEKLLEAEQSLRNLEDIHMSLEK here?
**A.** 3.11

**Q.** Which protein stability index does the source give for LVEKLLEAEQSLRNLEDIHMSLEK here?
**A.** 1.7

**Q.** For LSEKLLEAEQSLRNLEDIHMSLEK, which protein stability index is on record?
**A.** 2.33

**Q.** Which protein stability index does the source give for LFEKLLEAEQSLRNLEDIHMSLEK here?
**A.** 1.16

**Q.** For LNEKLLEAEQSLRNLEDIHMSLEK, which protein stability index is on record?
**A.** 1.86

**Q.** Which protein stability index does the source give for LKEKLLEAEQSLRNLEDIHMSLEK here?
**A.** 3.61

**Q.** Which protein stability index does the source give for LHEKLLEAEQSLRNLEDIHMSLEK here?
**A.** 2.02

**Q.** For LTEKLLEAEQSLRNLEDIHMSLEK, which protein stability index is on record?
**A.** 2.83

**Q.** Which protein stability index does the source give for LDEKLLEAEQSLRNLEDIHMSLEK here?
**A.** 2.72

**Q.** Which protein stability index does the source give for LLEKLLEAEQSLRNLEDIHMSLEK here?
**A.** 1.93

**Q.** Which protein stability index does the source give for LIEKLLEAEQSLRNLEDIHMSLEK here?
**A.** 2.41

Variants of: B2
Assay: as above
Settings: c terminus: a fixed tail appended

**Q.** With YGSIHGPTDYQVNIQIIEYIKKQT as the variant, how does the protein stability index read?
**A.** 2.22

**Q.** With YGSIHGPTDYQVNIQIIEYYKKQT as the variant, how does the protein stability index read?
**A.** 1.88

**Q.** For YGSIHGPTDYQVNIQIIEYVKKQT, which protein stability index is on record?
**A.** 1.84

**Q.** Which protein stability index does the source give for YGSIHGPTDYQVNIQIIEYWKKQT here?
**A.** 2.15

**Q.** Which protein stability index does the source give for YGSIHGPTDYQVNIQIIEYPKKQT here?
**A.** 1.72

**Q.** For YGSIHGPTDYQVNIQIIEYMKKQT, which protein stability index is on record?
**A.** 2.33

**Q.** For YGSIHGPTDYQVNIQIIEYHKKQT, which protein stability index is on record?
**A.** 2.54

**Q.** Which protein stability index does the source give for YGSIHGPTDYQVNIQIIEYRKKQT here?
**A.** 2.08

**Q.** With YGSIHGPTDYQVNIQIIEYQKKQT as the variant, how does the protein stability index read?
**A.** 2.2

**Q.** With YGSIHGPTDYQVNIQIIEYDKKQT as the variant, how does the protein stability index read?
**A.** 2.59

**Q.** For YGSIHGPTDYQVNIQIIEYCKKQT, which protein stability index is on record?
**A.** 1.66

**Q.** With YGSIHGPTDYQVNIQIIEYTKKQT as the variant, how does the protein stability index read?
**A.** 2.25

**Q.** Which protein stability index does the source give for YGSIHGPTDYQVNIQIIEYLKKQT here?
**A.** 2.25

**Q.** With YGSIHGPTDYQVNIQIIEYSKKQT as the variant, how does the protein stability index read?
**A.** 2

**Q.** For YGSIHGPTDYQVNIQIIEYAKKQT, which protein stability index is on record?
**A.** 2.39

**Q.** With YGSIHGPTDYQVNIQIIEYNKKQT as the variant, how does the protein stability index read?
**A.** 2.43

**Q.** Which protein stability index does the source give for YGSIHGPTDYQVNIQIIEYFKKQT here?
**A.** 1.84

**Q.** With YGSIHGPTDYQVNIQIIEYKKKQT as the variant, how does the protein stability index read?
**A.** 2.35

**Q.** With YGSIHGPTDYQVNIQIIEYGKKQT as the variant, how does the protein stability index read?
**A.** 2.21

**Q.** For YGSIHGPTDYQVNIQIIELEKKQT, which protein stability index is on record?
**A.** 2.54

**Q.** With YGSIHGPTDYQVNIQIIEHEKKQT as the variant, how does the protein stability index read?
**A.** 3.23

**Q.** Which protein stability index does the source give for YGSIHGPTDYQVNIQIIEEEKKQT here?
**A.** 4.05

**Q.** For YGSIHGPTDYQVNIQIIEDEKKQT, which protein stability index is on record?
**A.** 3.76

**Q.** With YGSIHGPTDYQVNIQIIEPEKKQT as the variant, how does the protein stability index read?
**A.** 3.67

**Q.** For YGSIHGPTDYQVNIQIIETEKKQT, which protein stability index is on record?
**A.** 2.92

**Q.** Which protein stability index does the source give for YGSIHGPTDYQVNIQIIEWEKKQT here?
**A.** 2.5

**Q.** With YGSIHGPTDYQVNIQIIEGEKKQT as the variant, how does the protein stability index read?
**A.** 3.36

**Q.** Which protein stability index does the source give for YGSIHGPTDYQVNIQIIESEKKQT here?
**A.** 3.56

**Q.** For YGSIHGPTDYQVNIQIIEAEKKQT, which protein stability index is on record?
**A.** 3.19

**Q.** With YGSIHGPTDYQVNIQIIEVEKKQT as the variant, how does the protein stability index read?
**A.** 2.44

**Q.** With YGSIHGPTDYQVNIQIIEKEKKQT as the variant, how does the protein stability index read?
**A.** 3.38

**Q.** For YGSIHGPTDYQVNIQIIEREKKQT, which protein stability index is on record?
**A.** 3.01

**Q.** Which protein stability index does the source give for YGSIHGPTDYQVNIQIIECEKKQT here?
**A.** 2.69

**Q.** For YGSIHGPTDYQVNIQIIEIEKKQT, which protein stability index is on record?
**A.** 2.39

**Q.** With YGSIHGPTDYQVNIQIIEFEKKQT as the variant, how does the protein stability index read?
**A.** 2.14

**Q.** For YGSIHGPTDYQVNIQIIEQEKKQT, which protein stability index is on record?
**A.** 3.29

**Q.** For YGSIHGPTDYQVNIQIIEMEKKQT, which protein stability index is on record?
**A.** 3.03

**Q.** Which protein stability index does the source give for YGSIHGPTDYQVNIQIIENEKKQT here?
**A.** 3.29

**Q.** With YGSIHGPTDYQVNIQIIEYEKNQT as the variant, how does the protein stability index read?
**A.** 2.5

**Q.** With YGSIHGPTDYQVNIQIIEYEKRQT as the variant, how does the protein stability index read?
**A.** 2.14

**Q.** Which protein stability index does the source give for YGSIHGPTDYQVNIQIIEYEKTQT here?
**A.** 1.93

**Q.** With YGSIHGPTDYQVNIQIIEYEKLQT as the variant, how does the protein stability index read?
**A.** 2.03

**Q.** For YGSIHGPTDYQVNIQIIEYEKPQT, which protein stability index is on record?
**A.** 1.72

**Q.** With YGSIHGPTDYQVNIQIIEYEKWQT as the variant, how does the protein stability index read?
**A.** 2.5

**Q.** With YGSIHGPTDYQVNIQIIEYEKFQT as the variant, how does the protein stability index read?
**A.** 1.39

**Q.** For YGSIHGPTDYQVNIQIIEYEKQQT, which protein stability index is on record?
**A.** 2.75

**Q.** With YGSIHGPTDYQVNIQIIEYEKYQT as the variant, how does the protein stability index read?
**A.** 2.47

**Q.** Which protein stability index does the source give for YGSIHGPTDYQVNIQIIEYEKIQT here?
**A.** 1.56

**Q.** With YGSIHGPTDYQVNIQIIEYEKMQT as the variant, how does the protein stability index read?
**A.** 2.59

**Q.** For YGSIHGPTDYQVNIQIIEYEKSQT, which protein stability index is on record?
**A.** 1.78

**Q.** With YGSIHGPTDYQVNIQIIEYEKCQT as the variant, how does the protein stability index read?
**A.** 1.52
